Test results as given in US20260258141A1 (BIOCYTOGEN PHARMACEUTICALS BEIJING, published 2026).

Columns and labels:
[1] = target: T1, human insulin receptor INSR on cells (human, UniProt P06213 28-1382); assay: flow cytometry on CHO-S-hINSR cells, antibody 20 µg/mL
T1 construct: Expressed on CHO-S cells; also called hINSR; CHO-S-hINSR cells
Description: INSR (insulin receptor) and IGF1R are both members of the superfamily of receptor tyrosine kinases (RTKs). The binding activity of anti-IGF1R antibodies to human IGF1R, human INSR and monkey IGF1R was verified by flow cytometry. Briefly, CHO-S-hIGF1R cells (expressing human IGF1R (SEQ ID NO: 45), CHO-S-fasIGF1R cells (expressing cynomolgus monkey IGF1R (SEQ ID NO: 46) and CHO-S-hINSR (expressing SEQ ID NO: 47) were plated in a 96-well plate at a density of 2×10⁵ cells/well respectively. Purified anti-IGF1R antibody with a concentration of 20 μg/mL was added to each well and was incubated at 4° C. for 30 minutes. Then, after one wash with PBS, the cells were incubated with the secondary antibody Alexa Fluor® 647 anti-human IgG Fcγ (Jackson ImmunoResearch Laboratories, Inc., Cat #: 109-606-170) at 4° C. for 15 minutes before flow cytometry analysis. Human IgG1 was used as ISO control.

[2] = target: human IGF1R (insulin-like growth factor 1 receptor) on cells (human) (UniProt P08069); assay: flow cytometry on CHO-S-hIGF1R cells, antibody 20 µg/mL
[3] = target: cynomolgus monkey IGF1R on cells (cynomolgus monkey); assay: flow cytometry on CHO-S-fasIGF1R cells, antibody 20 µg/mL
cynomolgus monkey IGF1R on cells (cynomolgus monkey), sequence (P08069 other isoform, or with tags, fused parts or gaps limits assumed): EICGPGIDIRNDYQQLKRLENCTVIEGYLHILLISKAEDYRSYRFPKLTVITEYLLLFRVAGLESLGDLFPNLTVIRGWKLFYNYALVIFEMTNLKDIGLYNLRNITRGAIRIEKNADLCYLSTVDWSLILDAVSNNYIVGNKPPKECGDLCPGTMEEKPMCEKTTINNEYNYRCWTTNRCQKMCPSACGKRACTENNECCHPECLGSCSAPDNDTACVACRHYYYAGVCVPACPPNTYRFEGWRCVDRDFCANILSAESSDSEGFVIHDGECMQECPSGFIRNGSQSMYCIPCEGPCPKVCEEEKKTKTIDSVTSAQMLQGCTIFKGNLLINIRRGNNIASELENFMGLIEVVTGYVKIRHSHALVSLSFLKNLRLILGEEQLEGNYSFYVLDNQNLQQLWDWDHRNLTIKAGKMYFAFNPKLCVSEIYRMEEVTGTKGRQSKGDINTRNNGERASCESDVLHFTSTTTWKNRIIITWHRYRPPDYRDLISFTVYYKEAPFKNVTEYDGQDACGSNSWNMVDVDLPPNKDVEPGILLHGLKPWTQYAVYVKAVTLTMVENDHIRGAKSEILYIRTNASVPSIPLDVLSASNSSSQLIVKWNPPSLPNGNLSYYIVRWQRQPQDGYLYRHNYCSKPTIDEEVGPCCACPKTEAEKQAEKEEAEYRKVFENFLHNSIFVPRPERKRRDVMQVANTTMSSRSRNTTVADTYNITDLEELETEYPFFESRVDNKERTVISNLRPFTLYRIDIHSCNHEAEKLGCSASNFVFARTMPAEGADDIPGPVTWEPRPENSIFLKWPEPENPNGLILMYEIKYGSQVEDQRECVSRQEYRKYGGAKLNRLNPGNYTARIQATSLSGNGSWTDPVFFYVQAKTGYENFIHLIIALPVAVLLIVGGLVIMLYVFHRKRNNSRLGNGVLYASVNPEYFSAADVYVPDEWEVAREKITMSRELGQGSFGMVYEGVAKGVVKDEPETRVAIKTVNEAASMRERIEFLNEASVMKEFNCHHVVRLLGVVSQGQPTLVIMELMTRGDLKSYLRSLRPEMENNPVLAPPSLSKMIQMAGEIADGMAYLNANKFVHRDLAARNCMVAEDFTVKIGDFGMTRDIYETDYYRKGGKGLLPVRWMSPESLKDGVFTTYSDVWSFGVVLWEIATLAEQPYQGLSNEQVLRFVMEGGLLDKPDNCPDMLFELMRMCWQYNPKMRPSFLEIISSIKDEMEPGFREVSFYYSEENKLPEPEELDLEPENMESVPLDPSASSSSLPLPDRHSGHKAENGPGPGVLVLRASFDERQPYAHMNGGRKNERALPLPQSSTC

T1 sequence (P06213 other isoform, or with tags, fused parts or gaps limits assumed): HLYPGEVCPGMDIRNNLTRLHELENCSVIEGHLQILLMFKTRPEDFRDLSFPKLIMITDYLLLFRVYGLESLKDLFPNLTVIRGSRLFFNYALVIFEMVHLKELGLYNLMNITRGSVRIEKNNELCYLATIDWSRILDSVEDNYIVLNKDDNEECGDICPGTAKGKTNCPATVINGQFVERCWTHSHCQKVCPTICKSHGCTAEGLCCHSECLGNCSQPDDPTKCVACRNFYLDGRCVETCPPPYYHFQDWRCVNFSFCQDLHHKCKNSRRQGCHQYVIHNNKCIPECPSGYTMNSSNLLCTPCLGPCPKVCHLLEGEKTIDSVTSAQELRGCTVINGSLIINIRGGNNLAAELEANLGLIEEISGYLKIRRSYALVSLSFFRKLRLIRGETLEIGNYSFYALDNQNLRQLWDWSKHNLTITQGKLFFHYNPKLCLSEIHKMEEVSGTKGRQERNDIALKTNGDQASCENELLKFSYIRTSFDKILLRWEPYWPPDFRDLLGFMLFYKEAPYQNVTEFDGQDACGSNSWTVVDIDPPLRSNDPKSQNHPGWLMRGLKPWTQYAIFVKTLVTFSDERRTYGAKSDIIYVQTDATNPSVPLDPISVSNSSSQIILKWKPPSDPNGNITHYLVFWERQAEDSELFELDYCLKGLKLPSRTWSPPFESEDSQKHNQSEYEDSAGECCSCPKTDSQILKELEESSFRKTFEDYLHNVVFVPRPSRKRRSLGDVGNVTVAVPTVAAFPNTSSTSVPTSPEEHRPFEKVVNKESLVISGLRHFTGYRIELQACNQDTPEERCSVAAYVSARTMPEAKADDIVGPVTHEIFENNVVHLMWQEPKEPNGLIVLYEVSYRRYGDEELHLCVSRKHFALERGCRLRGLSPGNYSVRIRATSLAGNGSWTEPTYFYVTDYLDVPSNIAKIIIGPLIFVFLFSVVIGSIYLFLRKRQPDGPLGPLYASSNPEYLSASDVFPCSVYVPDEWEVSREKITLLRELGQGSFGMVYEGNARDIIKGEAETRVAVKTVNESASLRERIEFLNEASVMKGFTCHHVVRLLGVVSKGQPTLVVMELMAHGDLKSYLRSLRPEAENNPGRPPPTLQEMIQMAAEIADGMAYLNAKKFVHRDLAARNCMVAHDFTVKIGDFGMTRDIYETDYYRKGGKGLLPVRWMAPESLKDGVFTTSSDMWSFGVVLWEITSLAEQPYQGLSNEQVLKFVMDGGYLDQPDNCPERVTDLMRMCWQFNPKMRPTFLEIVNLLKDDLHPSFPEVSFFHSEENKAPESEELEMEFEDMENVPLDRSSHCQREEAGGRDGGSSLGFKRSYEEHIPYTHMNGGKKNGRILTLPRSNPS
human IGF1R (insulin-like growth factor 1 receptor) on cells (human), sequence (P08069 31-1367 limits assumed): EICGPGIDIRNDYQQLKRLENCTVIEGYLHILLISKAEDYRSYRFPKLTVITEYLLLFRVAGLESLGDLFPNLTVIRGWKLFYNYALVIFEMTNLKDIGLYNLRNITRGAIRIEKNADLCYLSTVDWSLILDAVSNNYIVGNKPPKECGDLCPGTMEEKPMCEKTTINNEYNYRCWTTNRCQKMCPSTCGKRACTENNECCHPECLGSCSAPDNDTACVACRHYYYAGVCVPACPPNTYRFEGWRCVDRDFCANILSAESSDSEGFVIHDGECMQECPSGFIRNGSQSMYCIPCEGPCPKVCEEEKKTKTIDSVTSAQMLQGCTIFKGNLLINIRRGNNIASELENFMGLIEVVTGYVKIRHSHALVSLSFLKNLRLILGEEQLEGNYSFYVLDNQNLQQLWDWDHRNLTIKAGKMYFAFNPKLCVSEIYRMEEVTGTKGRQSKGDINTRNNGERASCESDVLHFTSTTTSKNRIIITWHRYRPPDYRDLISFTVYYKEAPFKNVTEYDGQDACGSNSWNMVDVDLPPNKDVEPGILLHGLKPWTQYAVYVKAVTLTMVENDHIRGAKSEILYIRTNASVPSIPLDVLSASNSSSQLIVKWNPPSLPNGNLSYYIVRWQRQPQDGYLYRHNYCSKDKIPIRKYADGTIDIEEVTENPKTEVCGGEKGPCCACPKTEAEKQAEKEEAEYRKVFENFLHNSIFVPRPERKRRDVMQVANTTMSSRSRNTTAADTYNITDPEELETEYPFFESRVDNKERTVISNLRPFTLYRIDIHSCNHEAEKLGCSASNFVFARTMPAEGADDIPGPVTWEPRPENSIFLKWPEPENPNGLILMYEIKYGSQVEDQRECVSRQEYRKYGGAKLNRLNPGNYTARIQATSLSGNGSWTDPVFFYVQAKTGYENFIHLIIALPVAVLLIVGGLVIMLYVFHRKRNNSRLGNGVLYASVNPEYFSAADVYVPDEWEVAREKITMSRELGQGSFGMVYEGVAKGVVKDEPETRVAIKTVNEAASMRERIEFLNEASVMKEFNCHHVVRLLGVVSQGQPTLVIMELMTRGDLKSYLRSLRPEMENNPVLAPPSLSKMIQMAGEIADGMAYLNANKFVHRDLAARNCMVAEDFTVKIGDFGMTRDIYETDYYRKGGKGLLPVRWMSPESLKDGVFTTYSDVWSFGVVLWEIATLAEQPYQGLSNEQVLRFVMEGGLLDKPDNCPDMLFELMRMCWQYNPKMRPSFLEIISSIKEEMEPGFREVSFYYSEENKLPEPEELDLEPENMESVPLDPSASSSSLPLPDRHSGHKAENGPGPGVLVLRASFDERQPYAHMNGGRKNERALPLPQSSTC

| Percentage of positive cells [1] [%] | Percentage of positive cells [2] [%] | Percentage of positive cells [3] [%] | Molecule |
| --- | --- | --- | --- |
| 0.4 | 0.7 | 0.3 | Human IgG1 ISO control (antibody) |
| 1.5 |  |  | Teprotumumab analog (antibody, V domains shown, also called positive control) VH: QVELVESGGGVVQPGRSQRLSCAASGFTFSSYGMHWVRQAPGKGLEWVAIIWFDGSSTYYADSVRGRFTISRDNSKNTLYLQMNSLRAEDTAVYFCARELGRRYFDLWGRGTLVSVSS VL: EIVLTQSPATLSLSPGERATLSCRASQSVSSYLAWYQQKPGQAPRLLIYDASKRATGIPARFSGSGSGTDFTLTISSLEPEDFAVYYCQQRSKWPPWTFGQGTKVESKR |
